The target in the experiment is human IL-13Rα2 on the surface of human tumour cell lines (human) (UniProt Q14627). Description: cell-based or functional assay.
Sequence of human IL-13Rα2 on the surface of human tumour cell lines (human) (Q14627 27-380): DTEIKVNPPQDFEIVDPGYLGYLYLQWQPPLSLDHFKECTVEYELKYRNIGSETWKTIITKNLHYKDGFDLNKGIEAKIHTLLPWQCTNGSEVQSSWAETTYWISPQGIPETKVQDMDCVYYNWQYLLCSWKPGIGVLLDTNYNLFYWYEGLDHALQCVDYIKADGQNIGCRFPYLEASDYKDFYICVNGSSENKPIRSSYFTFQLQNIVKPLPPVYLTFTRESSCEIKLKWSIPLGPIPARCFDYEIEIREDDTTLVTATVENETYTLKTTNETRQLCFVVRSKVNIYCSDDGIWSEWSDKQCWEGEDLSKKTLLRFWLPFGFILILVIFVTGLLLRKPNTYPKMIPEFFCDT

Take “ab27414 (Abcam), monoclonal mouse IgG1 anti-IL-13Rα2 (antibody)”: the % internalization, 15 min, A375 stood at 49.3%; the % internalization, 15 min, H460R amounted to 57.5%; the % internalization, 15 min, Hs766T amounted to 60.8%; the % internalization, 15 min, PC3MM2 turned out to be 60.2%. The substance further displayed a % internalization, 4 hours, A375 of 68.2%; a % internalization, 4 hours, H460R of 49.2%; a % internalization, 4 hours, Hs766T of 73.6%; a % internalization, 4 hours, PC3MM2 of 49.7%.
“hIgG8.8-mc-3377 non-binding control ADC (antibody)”: the IC50 (ng Ab/mL), in vitro cytotoxicity, A375 was over 400000 ng Ab/mL and the IC50 (ng Ab/mL), in vitro cytotoxicity, PC3MM2 is over 400000 ng Ab/mL.
“hIgG8.8-vc-0101 non-binding control ADC (antibody)” registered an IC50 (ng Ab/mL), in vitro cytotoxicity, A375 of over 400000 ng Ab/mL and an IC50 (ng Ab/mL), in vitro cytotoxicity, PC3MM2 of over 400000 ng Ab/mL.

The record behind these values is patent US20150266962A1.
